Consider two molecules from article PMC6981324.

Common to all, as to experiment: ITC
Background: ITC needs no label: the signal is the heat of the interaction.

Test [1] deals with double mutant HasR (Arg297Ala/Asn800Ala), DM-HasR (Serratia marcescens).
Test [2] concerns the target single mutant HasR (Ile671Gly), Ile671Gly-HasR (Serratia marcescens).
For test [3], the target named is wild-type HasR (WT-HasR) (Serratia marcescens).

B1: heme-free HasA (apoHasA) (natural protein)
chain: MAFSVNYDSSFGGYSIHDYLGQWASTFGDVNHTNGNVTDANSGGFYGGSLSGSQYAISSTANQVTAFVAGGNLTYTLFNEPAHTLYGQLDSLSFGDGLSGGDTSPYSIQVPDVSFGGLNLSSLQAQGHDGVVHQVVYGLMSGDTGALETALNGILDDYGLSVNSTFDQVAAATAVGVQHADSPELLAA
For the molecule B1, the figures for the Ka in test [1], in test [2] and in test [3] were 1.53e+07 M⁻¹, 1.8e+07 M⁻¹ and 1.7e+08 M⁻¹, respectively. Also, the results for the dH in test [1], in test [2] and in test [3] were -26 kcal/M, -54 kcal/M and -43 kcal/M, respectively. The stoichiometry N in test [1] is 1.05; in test [2], 1.06; in test [3], 0.92.

B2: heme-loaded HasA (holoHasA) (natural protein)
chain: MAFSVNYDSSFGGYSIHDYLGQWASTFGDVNHTNGNVTDANSGGFYGGSLSGSQYAISSTANQVTAFVAGGNLTYTLFNEPAHTLYGQLDSLSFGDGLSGGDTSPYSIQVPDVSFGGLNLSSLQAQGHDGVVHQVVYGLMSGDTGALETALNGILDDYGLSVNSTFDQVAAATAVGVQHADSPELLAA
On to B2, for which the Ka in test [1] came to 2.4e+06 M⁻¹; in test [2], 9.4e+07 M⁻¹; in test [3], 1.1e+06 M⁻¹. The values for the dH in test [1], in test [2] and in test [3] were -15 kcal/M, -46 kcal/M and -21 kcal/M, respectively. In addition, the figures for the stoichiometry N in test [1], in test [2] and in test [3] were 1.02, 0.99 and 1.11, respectively.

Broadly, the stoichiometry N is the number of molecules, sites or subunits per partner or assembly.
